# In patent publication US20240368668A1, “SUBSTRATES AND BIOMARKERS OF ADAMTS7” (The Broad Institute, Inc., priority 2021, published 2024):
# Square brackets hold non-standard residues; d marks the D form. Ends that are not written are not given here. pGlu = O=C1CC[C@@H](C(=O)O)N1
# Target: T1, mouse ADAMTS7 (Mus musculus, UniProt Q68SA9)
# T1 construct: Full-length mouse Adamts7 1-1857 (Uniprot Q68SA9, WT or E373Q catalytic mutant); expressed in transfected cells; host or cells: Human Coronary Artery Smooth Muscle Cells (HCA-SMC, Lonza), adenovirus 50 MOI
# T1 sequence (Q68SA9 221-1657): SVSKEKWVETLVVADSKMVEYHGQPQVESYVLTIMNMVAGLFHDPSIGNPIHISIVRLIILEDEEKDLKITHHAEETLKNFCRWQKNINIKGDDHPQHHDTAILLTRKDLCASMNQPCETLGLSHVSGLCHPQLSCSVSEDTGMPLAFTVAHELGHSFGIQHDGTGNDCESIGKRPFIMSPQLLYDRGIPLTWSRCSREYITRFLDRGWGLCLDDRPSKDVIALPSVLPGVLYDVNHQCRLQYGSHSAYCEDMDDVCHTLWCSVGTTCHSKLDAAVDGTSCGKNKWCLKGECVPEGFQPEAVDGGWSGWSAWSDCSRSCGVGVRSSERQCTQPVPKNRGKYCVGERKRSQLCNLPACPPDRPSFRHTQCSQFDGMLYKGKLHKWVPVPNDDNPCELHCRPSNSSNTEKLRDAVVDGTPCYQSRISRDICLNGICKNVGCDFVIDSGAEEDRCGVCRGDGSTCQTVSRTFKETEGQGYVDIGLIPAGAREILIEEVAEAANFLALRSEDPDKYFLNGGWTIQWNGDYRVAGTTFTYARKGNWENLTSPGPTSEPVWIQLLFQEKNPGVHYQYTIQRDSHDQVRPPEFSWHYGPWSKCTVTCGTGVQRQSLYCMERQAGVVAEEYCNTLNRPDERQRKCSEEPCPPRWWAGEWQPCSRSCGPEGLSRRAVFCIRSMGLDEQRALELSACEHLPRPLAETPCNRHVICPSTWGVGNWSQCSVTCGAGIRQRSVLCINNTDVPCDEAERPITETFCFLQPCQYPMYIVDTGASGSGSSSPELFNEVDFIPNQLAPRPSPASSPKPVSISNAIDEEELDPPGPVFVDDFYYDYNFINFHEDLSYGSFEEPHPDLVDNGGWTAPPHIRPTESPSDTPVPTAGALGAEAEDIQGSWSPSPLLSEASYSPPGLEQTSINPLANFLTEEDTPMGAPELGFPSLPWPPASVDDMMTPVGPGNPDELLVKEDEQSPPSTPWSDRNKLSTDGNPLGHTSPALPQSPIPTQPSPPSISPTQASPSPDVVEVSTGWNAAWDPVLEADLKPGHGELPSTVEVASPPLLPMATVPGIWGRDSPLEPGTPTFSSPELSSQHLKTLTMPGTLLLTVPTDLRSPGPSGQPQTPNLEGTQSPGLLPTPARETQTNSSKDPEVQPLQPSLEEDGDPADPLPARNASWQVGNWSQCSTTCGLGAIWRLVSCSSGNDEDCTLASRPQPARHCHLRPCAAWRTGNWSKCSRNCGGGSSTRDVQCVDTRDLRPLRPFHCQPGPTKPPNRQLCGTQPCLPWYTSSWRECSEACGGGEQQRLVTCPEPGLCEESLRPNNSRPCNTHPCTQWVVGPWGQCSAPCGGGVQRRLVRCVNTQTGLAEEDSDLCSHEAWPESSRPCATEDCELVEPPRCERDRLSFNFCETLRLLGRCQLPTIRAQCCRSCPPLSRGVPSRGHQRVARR
# Test: TMT10 TAILS N-terminomics, SMC1 experiment (Ad-mADAMTS7 WT vs EQ vs Luc, technical replicates, trypsin digest)
# Type: cell-based
# Conditions: TAILS neo-N-terminal peptide abundance; log fold change, Ad-mADAMTS7 WT over Luc
# Text: ADAMTS7 Expression, Cell Culture and Preparation of the Secreted Proteins—Full-length mouse Adamts7 1-1857 (Uniprot Q68SA9, WT or E373Q catalytic mutant) with a carboxyl terminal 3xFLAG tag was used to generate custom adenoviruses as previously described. Adeno-CMV-Luciferase (Ad-Luc) from Vector Biolabs was used as a negative control. Human Coronary Artery Smooth Muscle Cells (HCA-SMC) were obtained from Lonza and expanded in Lonza SmGM-2 media in 15 cm tissue culture plates. Twenty-four hours before media collection, near confluent plates were transduced with 50 MOI adenovirus and switched to Lonza Basal SM media with volumes of 20 ml per 15 cm plate. Expression of the Flag tagged ADAMTS7 was confirmed from the media using western blot and detected using the anti-Flag M2-HRP antibody (Sigma, A8592). Collected media was processed by adding protease inhibitors (1 mM EDTA and 1 mM PMSF) and clarified by 500 g×5 min spin at 4 C to pellet cell debris. Cell media supernatants were then passed through a 0.22 um filter and kept chilled. Processed media was then concentrated 50-100× using 3 kDa Centricon Plus-70 filter unit, spun at 3,500 g×60 min at 4 C. Approximately 10% of the processed, concentrated media was set aside for total secretome proteolytic analysis. The remaining 90% of the processed, concentrated media was buffer exchanged into 50 mM HEPES pH 8.0, 150 mM NaCl (2×50 ml) using the 3 kDa Centricon Plus-70 filter unit and concentrated to >2 mg/ml to serve as input for the TAILS experiment. Secretome and TAILS input samples were stored at −80° C.
# For the first experiment, referred to as SMC1, 120 ml of media from 6×15 cm dishes was pooled from each condition (Luc, WT, EQ) and processed to produce three separate inputs for the TAILS experiment. Luc, WT and EQ inputs from the SMC1 experiment were each divided into triplicate 400 ug samples to generate technical replicate TAILS data. For the second experiment, referred to as SMC2, media was processed separately in triplicate for each condition (Luc1, Luc2, Luc3, WT1, WT2, WT3, EQ1, EQ2, EQ3) using 60 ml of media from 3×15 cm dishes for each process replicate. Inputs from the SMC2 experiment used process replicates of 300 ug each to generate TAILS data. The third experiment used input from cultured Human umbilical vein endothelial cells (HUVEC) from Lifeline Cell Technology grown in VascuLife Media and transduced in Lifeline Basal EC (+bFGF2 10 ng/ml). The HUVEC experiment used the same strategy as the SMC2 experiment, with 40 ml of media from 2×15 cm dishes for each process replicate and used 200 ug each to generate TAILS data. Inputs for process replicate experiments were restricted to the lowest concentration from the 9 parallel samples for SMC2 or HUVEC.
# TMT10 isotopic labeling and negative selection of non-labeled peptides-Sample preparation was performed based on the TAILS protocol from the Overall lab with some modifications. From a single experiment, nine parallel protein samples in 50 mM HEPES pH 8.0, 150 mM NaCl were separately denatured with guanidinium chloride (Sigma, G4505) to reach a final concentration of 2.5M guanidinium chloride and 250 mM HEPES and incubated at 65° C. for 15 min. Reduction was achieved through addition of tris(2-carboxylethyl) phosphine (TCEP) at a final concentration of […] and incubated at 65° C. for 45 min. Alkylation reaction was performed with addition of iodoacetamide (IAA, Sigma, A3221) to a final concentration of 10 mM IAA for 15 min at room temperature in the dark. Following denaturation, reduction and alkylation steps, ten percent of each of the nine parallel protein samples was removed and combined to serve as a pooled reference. Isobaric tags were added to free amine groups using the TMT10plex Isobaric Mass Tagging Kit (ThermoFisher, 90113) with TMT channels randomly assigned to the nine samples and TMT 131 assigned to the pooled reference. […]
row,logFC.mWT.over.Lux,Substance
1,4.06,IGFBP3_32 (AGLGPVVR; listed as Homo sapiens)
2,1.54,LTBP2_760 (SSGALPGPAER; listed as Homo sapiens)
3,4.70,LGALS3BP_447 (FQAPSDYR; listed as Homo sapiens)
4,3.84,EFEMP1_124 (AVAGPEMQTGR; listed as Homo sapiens)
5,1.92,EFEMP1_125 (VAGPEMQTGR; listed as Homo sapiens)
6,4.70,FBN1_29 (LEAGNVKETR; listed as Homo sapiens)
7,0.88,LOX_58 (LSLGSQYQPQR; listed as Homo sapiens)
8,4.79,FLNA_695 (FTVDAKHGGKAPLR; listed as Homo sapiens)
9,1.00,HSPG2_3250 (SPLPWQHR; listed as Homo sapiens)
10,1.45,ADAM9_69 (VIQAEGKEHIIHLER; listed as Homo sapiens)
11,1.24,LTBP2_1371 (SGQKGHAPCSSVLGR; listed as Homo sapiens)
12,1.40,LTBP2_1584 (SSEVYAQLCNVAR; listed as Homo sapiens)
13,3.37,LOXL2_37 (FQQPAPEYHQPQAPANVAKIQLR; listed as Homo sapiens)
14,0.99,LOXL1_219 (VASAGVIYPYQPR; listed as Homo sapiens)
15,4.42,GSN_35 (SQAGAPQGR; listed as Homo sapiens)
16,3.74,FN1_282 (GSGPFTDVR; listed as Homo sapiens)
17,3.84,CCDC80_66 (LEEPNLQPLQR; listed as Homo sapiens)
18,0.70,HSPG2_4021 (LNKDGSLR; listed as Homo sapiens)
19,1.44,FN1_1656 (SSSPVTGYR; listed as Homo sapiens)
20,0.81,EFHD2_67 (QGIGEPQSPSR; listed as Homo sapiens)
21,0.74,LTBP2_1023 (GKCTNLEGSFR; listed as Homo sapiens)
22,3.70,FN1_45 (VSQSKPGCYDNGKHYQINQQWER; listed as Homo sapiens)
23,1.87,FLNA_612 (SVEGPSQAKIECDDKGDGSCDVR; listed as Homo sapiens)
24,2.87,HSPG2_275 (LLPGSVR; listed as Homo sapiens)

row,logFC.mWT.over.Lux,Substance
1,4.83,LGALS1_53 (HGDANTIVCNSKDGGAWGTEQR; listed as Homo sapiens)
2,1.80,LTBP2_485 (SVQIHQVAQVR; listed as Homo sapiens)
3,3.02,ECM1_134 (FGDQSHPEPESWNAAQHCQQDR; listed as Homo sapiens)
4,2.59,FN1_1731 (FTDVDVDSIKIAWESPQGQVSR; listed as Homo sapiens)
5,1.29,FBLN2_259 (ALGPPAPVQAKAR; listed as Homo sapiens)
6,0.87,LASP1_123 (HEEFEKSR; listed as Homo sapiens)
7,0.94,LTBP2_1560 (TTYTECCCQDGEAWSQQCALCPPR; listed as Homo sapiens)
8,0.96,HSPG2_3647 ([pGlu]GKVKAFAHLQVPER; listed as Homo sapiens)
9,3.73,FN1_36 (MVQPQSPVAVSQSKPGCYDNGKHYQINQQWER; listed as Homo sapiens)
10,0.77,HSPG2_4075 (GCVGEVSVNGKR; listed as Homo sapiens)
11,1.09,HSPG2_3672 (SFLPLPTIKDAYR; listed as Homo sapiens)
12,2.44,FN1_281 (SGSGPFTDVR; listed as Homo sapiens)
13,2.07,HSPG2_2331 (ANLAYPAGSTQPIR; listed as Homo sapiens)
14,2.02,LOX_80 (ANASAQQPR; listed as Homo sapiens)
15,0.90,LTBP2_677 (SLGPGTCTLPLAQR; listed as Homo sapiens)
16,4.03,LTBP1_393 (LTATNFR; listed as Homo sapiens)
17,1.38,LOX_81 (NASAQQPR; listed as Homo sapiens)
18,1.99,GSN_413 (HIANVER; listed as Homo sapiens)
19,1.72,HEG1_49 (GAGLELQLER; listed as Homo sapiens)
20,0.81,HSPG2_3813 (SSGFIGCVR; listed as Homo sapiens)
21,1.70,FN1_886 (NQESTPVVIQQETTGTPR; listed as Homo sapiens)
22,4.95,FLNA_1285 (LTQTGGPHVKAR; listed as Homo sapiens)
23,1.37,LOXL2_38 ([code q]QPAPEYHQPQAPANVAKIQLR; not fully specified; listed as Homo sapiens)
24,3.08,FN1_47 ([code q]SKPGCYD[code n]GKHYQINQQWER; not fully specified; listed as Homo sapiens)
